Reference: patent publication US8980604B2 (priority 2009, dated 2015)

What was measured:
[1] = molecular target: T1, E. coli glycerol dehydrogenase (GlyDH, GldA) mutant GlyDH*(A160T) (Escherichia coli, UniProt P0A9S5, A160T); assay: Inhibition by substrate hydroxyacetone (Dixon plot), GlyDH*(A160T); format: biochemical; design: made in house; host or cells: E. coli BL21 star (DE3) ΔgldA::Cm with pETTOPO-gldA*(A160T); settings: crude extract
T1 sequence (P0A9S5 1-367 A160T): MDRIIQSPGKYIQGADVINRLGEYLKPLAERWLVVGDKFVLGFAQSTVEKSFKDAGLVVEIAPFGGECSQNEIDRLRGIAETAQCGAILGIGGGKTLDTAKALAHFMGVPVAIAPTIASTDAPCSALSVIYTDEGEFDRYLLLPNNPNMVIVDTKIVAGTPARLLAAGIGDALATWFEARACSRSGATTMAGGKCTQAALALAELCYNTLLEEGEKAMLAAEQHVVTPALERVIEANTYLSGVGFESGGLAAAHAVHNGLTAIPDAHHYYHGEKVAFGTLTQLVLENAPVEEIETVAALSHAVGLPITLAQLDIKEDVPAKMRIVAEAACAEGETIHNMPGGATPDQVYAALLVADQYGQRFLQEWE
Procedure: (§1) The 3 strains E. coli MG1655 pME101-VB01-gldA, E. coli MG1655 pME101-VB01-gldA*(A160T) and E. coli MG1655 pME101-VB01-gldA*(T120N) were cultivated in minimal medium with 10 g/l glucose as carbon source in 500 ml baffled Erlenmeyer flasks with 50 ml culture medium. The culture was carried out on a rotary shaker at 200 rpm. The temperature of the culture was maintained at 37° C. and the pH of the medium was buffered with MOPS (initial pH 6.8). Expression of the gene on the pME101-VB01 plasmid was induced by adding 100 μM IPTG at the beginning of the culture. The cultures were stopped at mid-exponential phase. The biomass was harvested by centrifugation, the supernatant was discarded and the pellet was stored at −20° C. before use.
(§2) Between 55-65 mg of E. coli biomass were resuspended in 9 ml of 100 mM Potassium phosphate pH 7, 0.1 mM DTT, 0.1 mM pyridoxal 5′-phosphate (PLP) and a protease inhibitor cocktail. Cells were sonicated on ice (Branson sonifier, 70 W) during four cycles of 30 sec with 30 sec intervals. After sonication, cells debris were removed by centrifugation at 12000 g for 30 min at 4° C. The crude extracts were desalted using an Econo-Pac 10 DG column (BioRad).

[2] = molecular target: GlyDH (glycerol dehydrogenase) of Nishise et al, 1984 (Cellulomonas); settings: read-out: Ki (hydroxyacetone), literature; cited from earlier work
[3] = molecular target: T2, E. coli glycerol dehydrogenase (GlyDH, GldA) mutant GlyDH*(T120N) (Escherichia coli, UniProt P0A9S5, T120N); assay: Inhibition by substrate hydroxyacetone (Dixon plot), GlyDH*(T120N); format: biochemical; design: made in house; host or cells: E. coli BL21 star (DE3) ΔgldA::Cm with pETTOPO-gldA*(T120N); settings: crude extract
T2 sequence (P0A9S5 1-367 T120N): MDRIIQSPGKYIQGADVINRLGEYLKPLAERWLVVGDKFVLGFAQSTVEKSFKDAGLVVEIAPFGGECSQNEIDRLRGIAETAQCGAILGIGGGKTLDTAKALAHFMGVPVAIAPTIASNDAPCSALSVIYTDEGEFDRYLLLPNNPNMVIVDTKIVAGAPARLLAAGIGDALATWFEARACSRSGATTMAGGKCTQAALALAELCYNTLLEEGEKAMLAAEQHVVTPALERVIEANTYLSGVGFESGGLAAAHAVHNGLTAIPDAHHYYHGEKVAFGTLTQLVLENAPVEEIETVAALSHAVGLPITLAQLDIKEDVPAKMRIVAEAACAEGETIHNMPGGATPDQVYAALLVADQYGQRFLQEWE
Procedure: as §1, §2

[4] = molecular target: T3, E. coli glycerol dehydrogenase (GlyDH, GldA), native (wild type) (Escherichia coli, UniProt P0A9S5); assay: Inhibition by product 1,2-propanediol, native GlyDH; format: biochemical; design: made in house; host or cells: E. coli BL21 star (DE3) ΔgldA::Cm with pETTOPO-gldA; settings: read-out: loss of maximum activity
T3 sequence (P0A9S5 1-367): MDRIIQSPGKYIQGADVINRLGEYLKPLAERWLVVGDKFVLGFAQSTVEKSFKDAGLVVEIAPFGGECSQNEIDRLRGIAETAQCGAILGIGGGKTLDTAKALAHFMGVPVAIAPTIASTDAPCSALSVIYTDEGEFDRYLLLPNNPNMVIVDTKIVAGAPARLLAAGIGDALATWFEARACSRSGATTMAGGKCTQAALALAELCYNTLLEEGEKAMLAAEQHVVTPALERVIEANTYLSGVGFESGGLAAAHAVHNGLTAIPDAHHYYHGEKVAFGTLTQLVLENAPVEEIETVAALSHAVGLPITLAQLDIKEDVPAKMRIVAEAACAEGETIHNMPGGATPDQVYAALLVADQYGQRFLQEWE
Procedure: as §1, §2

[5] = molecular target: T3, E. coli glycerol dehydrogenase (GlyDH, GldA), native (wild type); assay: Kinetics toward NADH and inhibition by NAD+, crude extract, native GlyDH
[6] = test system: Glycerol dehydrogenase (GlyDH); format: biochemical, E. coli; settings: crude extract; hydroxyacetone as substrate
Procedure: (§3) Glycerol dehydrogenase activity was assayed by measuring the initial rate of NADH oxidation with a spectrophotometer at a wavelength of 340 nm and at a constant temperature of 30° C. […] Control assay (blank), lacking the substrate was run in parallel and the value measured for the control was subtracted to the value measured for the assay to take into account non-specific oxidation of NADH.
(§4) One unit of enzyme activity was defined as the amount of enzyme that consumed 1 μmol substrate per minute under the conditions of the assay. Specific enzyme activity was expressed as units per mg of protein.
(§5) Enzyme kinetics with regards to NADH were realised with increasing concentration of NADH between 0.025 and 0.4 mM.

[7] = test system: Glycerol dehydrogenase (GlyDH); format: biochemical, E. coli; settings: for Specific activity, Glycolaldehyde: substrate glycolaldehyde; for Specific activity, Glycolaldehyde / Specific activity, Hydroxyacetone / Specific activity, Methyl glyoxal: purified enzyme, pH 6.5, 30° C.; for Specific activity, Hydroxyacetone: substrate hydroxyacetone; for Specific activity, Methyl glyoxal: substrate methyl glyoxal
Procedure: The oxidation reaction was carried out in quartz cuvette cells filled with 1 ml of the mixture: 100 mM MES buffer pH 6.5 with 30 mM of ammonium sulphate, 0.1 mM of iron sulphate, 0.1 mM of NADH and around 0.5 μg of purified proteins. […] In all reactions, non enzymatic rates were subtracted from the observed initial reaction rates. Enzyme activities are reported as μmoles of substrate/min/mg of […] and represents averages for at least three purified enzyme preparations.
The purification process designed to purify the glycerol dehydrogenase overexpressed in E. coli is composed of two steps. […] Cell pellets were resuspended in 3 ml of 50 mM HEPES buffer pH 7.5 containing protease inhibitor cocktail (Roche) and homogenized by sonication (at 0° C., under aerobic conditions, in four cycles of 30 s with 2 minutes intervals between each cycle). Cells debris were eliminated by centrifugation (5 min 12000 g) and nucleic acids in cell homogenate were precipitated by a streptomycin sulphate treatment (13.3 mg/ml final concentration, 15 minutes, 0° C.). The streptomycin sulphate treated cell homogenate was harvested by centrifugation (5 min 12000 g), and contaminant proteins of the supernatant were eliminated by ammonium sulphate precipitation at a saturated concentration of 20%, at 4° C., with stirring over one hour. The precipitate was then removed by centrifugation (20 min, 8600 g, 4° C.) and discarded. A further portion of ammonium sulphate at a saturated concentration of 30% was added to the supernatant as previously and then centrifuged 30 minutes at 8600 g 4° C. collecting the precipitate. The precipitate was dissolved in 3 ml of 50 mM Hepes Buffer pH 7.5 with 1M ammonium sulphate before loading 2.5 ml sample onto a hydrophobic interaction chromatography column (Hitrap phenyl sepharose, GEhealthcare) connected to an AKTA purifier system and equilibrated with 50 mM Hepes Buffer pH 7.5 containing 1M ammonium sulphate. After washing with 20 ml of the same buffer, proteins were eluted with a 20 ml linear gradient of 50 mM Hepes Buffer pH 7.5 from 1 M to 0 M of ammonium sulphate. […] The protein concentration and purity were respectively determined with the Bradford reagent and with sodium dodecylsulfate polyacrylamide gel electrophoresis (FIG. 3).
The kinetic parameters were determined with Sigma Plot (Systat Software Inc, San Jose Calif.) by fitting to the Michaelis Menten equation using a non linear regression.

[8] = substrate: CC(=O)CO; assay: purified protein, by the assay type; settings: other: purified enzyme, pH 6.5, 30° C., 0.1 mM NADH, hydroxyacetone 0.1 to 15 mM
[9] = molecular target: T4, Glycerol dehydrogenase (GlyDH) (Escherichia coli, UniProt P0A9S5, A160T); format: biochemical, E. coli; settings: NAD+ 0.6-1.2-2.5-4 mM
T4 construct: made in house; host or cells: E. coli MG1655, plasmid pME101-VB01-gldA; crude extract, not purified
Procedure: as §3, §4, §5

For CC(=O)CO [Hydroxyacetone, hydroxyacetone], the “Ki Hydroxyacetone increase by a factor (vs native)” value [1] is listed as “more than 10”, the Ki [2] is listed as 11.6 mM and the “Ki Hydroxyacetone increase by a factor (vs native)” value [3] is listed as “more than 10”.

In the case of CC(O)CO (centres unmarked) [1,2-propanediol], the inhibition at 40000 µM [4] is reported as 50% and the inhibition at 100000 µM [4] is reported as 65%.

With NC(=O)c1ccc[n+]([C@@H]2O[C@H](COP(=O)([O-])OP(=O)(O)OC[C@H]3O[C@@H](n4cnc5c(N)ncnc54)[C@H](O)[C@@H]3O)[C@@H](O)[C@H]2O)c1 [NAD+] the Ki [5] was 0.43 mM.

B1: E. coli glycerol dehydrogenase (GlyDH, GldA), native (wild type) (Escherichia coli K-12) (protein)
chain: MDRIIQSPGKYIQGADVINRLGEYLKPLAERWLVVGDKFVLGFAQSTVEKSFKDAGLVVEIAPFGGECSQNEIDRLRGIAETAQCGAILGIGGGKTLDTAKALAHFMGVPVAIAPTIASTDAPCSALSVIYTDEGEFDRYLLLPNNPNMVIVDTKIVAGAPARLLAAGIGDALATWFEARACSRSGATTMAGGKCTQAALALAELCYNTLLEEGEKAMLAAEQHVVTPALERVIEANTYLSGVGFESGGLAAAHAVHNGLTAIPDAHHYYHGEKVAFGTLTQLVLENAPVEEIETVAALSHAVGLPITLAQLDIKEDVPAKMRIVAEAACAEGETIHNMPGGATPDQVYAALLVADQYGQRFLQEWE
For B1, the Specific activity [6] was 1240 ± 77 nmol/min/mg, the “Specific activity, Glycolaldehyde” value [7] was 148.89 +/− 19.36 U/mg and the “Specific activity, Hydroxyacetone” value [7] was 36.3 +/− 0.88 U/mg. The “Specific activity, Methyl glyoxal” value [7] was 57.77 +/− 3.81 U/mg and the Km [8] was 70 ± 20 µM.

B2: E. coli glycerol dehydrogenase (GlyDH, GldA) mutant GlyDH*(A160T) (Escherichia coli K-12; A160T) (protein)
chain: MDRIIQSPGKYIQGADVINRLGEYLKPLAERWLVVGDKFVLGFAQSTVEKSFKDAGLVVEIAPFGGECSQNEIDRLRGIAETAQCGAILGIGGGKTLDTAKALAHFMGVPVAIAPTIASTDAPCSALSVIYTDEGEFDRYLLLPNNPNMVIVDTKIVAGTPARLLAAGIGDALATWFEARACSRSGATTMAGGKCTQAALALAELCYNTLLEEGEKAMLAAEQHVVTPALERVIEANTYLSGVGFESGGLAAAHAVHNGLTAIPDAHHYYHGEKVAFGTLTQLVLENAPVEEIETVAALSHAVGLPITLAQLDIKEDVPAKMRIVAEAACAEGETIHNMPGGATPDQVYAALLVADQYGQRFLQEWE
With B2 the “Inhibition by NAD+ at the concentrations used” value [9] was “almost no inhibition”, the Specific activity [6] was 1140 ± 42 nmol/min/mg and the “Specific activity, Glycolaldehyde” value [7] was 167.33 +/− 6.03 U/mg. For the same molecule, the “Specific activity, Hydroxyacetone” value [7] was 40.5 +/− 0.85 U/mg, the “Specific activity, Methyl glyoxal” value [7] was 58.27 +/− 2.42 U/mg and the “Kinetics compared with native enzyme” value ([7]; three substrates, pH 6.5) was “no significant differences”.
